Data as given in paper PMC3634753, “A Study of the Mechanism of the Chaperone-like Function of an scFv of Human Creatine Kinase by Computer Simulation” (PLoS ONE, 2013).

Columns and labels:
Experiment in all cases: peptide or protein array; 12-mer HCK peptides, each shifted by one residue, synthesized as spots on nitrocellulose membrane; incubated with purified scFv-A4 in MP buffer (30 mM Tris-HCl, pH 7.6, 170 mM NaCl, 6.4 mM KCl, 0.05% Tween 20, 5% sucrose) overnight at 4°C; bound scFv electro-transferred onto PVDF and detected with anti-V5 antibody
Details in all cases: both partners purified
[1] = target: T1, HCK peptide segment Asn5-Tyr14 (Homo sapiens, UniProt P06732)
T1 construct: human creatine kinase (HCK), segment Asn5-Tyr14 covered by the positive 12-mer spots A2-A6; Each spot held a 12-mer shifted by one residue; also called spots A2-A6; source: synthetic peptide, synthesized on nitrocellulose membrane as spots
T1 chain: NTHNKFKLNY

[2] = target: T2, HCK peptide segment Ser129-Lys138 (Homo sapiens, UniProt P06732)
T2 construct: human creatine kinase (HCK), segment Ser129-Lys138 covered by the positive 12-mer spots E3-E13; Each spot held a 12-mer shifted by one residue; also called spots E3-E13; source: synthetic peptide, synthesized on nitrocellulose membrane as spots
T2 chain: SRVRTGRSIK

[3] = target: T3, HCK peptide segment Lys170-Met179 (Homo sapiens, UniProt P06732)
T3 construct: human creatine kinase (HCK), segment Lys170-Met179 covered by the positive 12-mer spots F17-F21; Each spot held a 12-mer shifted by one residue; also called spots F17-F21; source: synthetic peptide, synthesized on nitrocellulose membrane as spots
T3 chain: KGKYYPLKSM

[4] = target: T4, HCK peptide segment Glu248-Leu257 (Homo sapiens, UniProt P06732)
T4 construct: human creatine kinase (HCK), segment Glu248-Leu257 covered by the positive 12-mer spots I3-I12; Each spot held a 12-mer shifted by one residue; also called spots I3-I12; source: synthetic peptide, synthesized on nitrocellulose membrane as spots
T4 chain: EVFRRFCVGL

[5] = target: T5, HCK peptide segment Lys265-Asn274 (Homo sapiens, UniProt P06732)
T5 construct: human creatine kinase (HCK), segment Lys265-Asn274 covered by the positive 12-mer spots I22-I29; Each spot held a 12-mer shifted by one residue; also called spots I22-I29; source: synthetic peptide, synthesized on nitrocellulose membrane as spots
T5 chain: KKAGHPFMWN

[6] = target: T6, HCK peptide segment Thr313-Thr322 (Homo sapiens, UniProt P06732)
T6 construct: human creatine kinase (HCK), segment Thr313-Thr322 covered by the positive 12-mer spots K5-K14; Each spot held a 12-mer shifted by one residue; also called spots K5-K14; source: synthetic peptide, synthesized on nitrocellulose membrane as spots
T6 chain: TRLRLQKRGT

Measured: binding result

B1: scFv-A4 (scFv, V domains shown)
VH: QVQLVQSGAEVKKPGSSVRVSCKASGGTFSSYAISWVRQAPGQGPEWMGGIIPIFGTANYAQKFQGRVTITADESTSTAYMELSSLRSEDTAVYYCAGSSGWSMSAFDIWGQGTMVTVSS
VL: SSELTQPPSVSVAPGKTARITCGGNNIGSKSVHWYQQKPGQAPVLVIYYDSDRPSGIPERFSGSNSGNTATLTISRVEAGDEADYYCQVWDSSSDHVVFGGGTKLTVL
notes: linker segment GLY112-LYS142; without the linker, the light chain is 100% and the heavy chain 93% identical to the Fab of PDB 2DD8; also called anti-human creatine kinase single chain antibody
binds: all assays above
